{"source": "IntAct's records for PubMed 24256567", "parents": {"B1": {"name": "Tyrosine-protein kinase ZAP-70 (Homo sapiens), P43403 (parent)", "chain": "MPDPAAHLPFFYGSISRAEAEEHLKLAGMADGLFLLRQCLRSLGGYVLSLVHDVRFHHFPIERQLNGTYAIAGGKAHCGPAELCEFYSRDPDGLPCNLRKPCNRPSGLEPQPGVFDCLRDAMVRDYVRQTWKLEGEALEQAIISQAPQVEKLIATTAHERMPWYHSSLTREEAERKLYSGAQTDGKFLLRPRKEQGTYALSLIYGKTVYHYLISQDKAGKYCIPEGTKFDTLWQLVEYLKLKADGLIYCLKEACPNSSASNASGAAAPTLPAHPSTLTHPQRRIDTLNSDGYTPEPARITSPDKPRPMPMDTSVYESPYSDPEELKDKKLFLKRDNLLIADIELGCGNFGSVRQGVYRMRKKQIDVAIKVLKQGTEKADTEEMMREAQIMHQLDNPYIVRLIGVCQAEALMLVMEMAGGGPLHKFLVGKREEIPVSNVAELLHQVSMGMKYLEEKNFVHRDLAARNVLLVNRHYAKISDFGLSKALGADDSYYTARSAGKWPLKWYAPECINFRKFSSRSDVWSYGVTMWEALSYGQKPYKKMKGPEVMAFIEQGKRMECPPECPPELYALMSDCWIYKWEDRPDFLTVEQRMRACYYSLASKVEGPPGSTQKAEAACA"}}}
{"variants_of": "B1", "details": "with ubs3b_mouse Ubash3b"}
{"variant": "Y319F", "effect of a mutation on the interaction": "disrupting interaction"}
